Where a chain is given by its changes, count along the chain named.
B1: ΔB7-H6_S3#14-SEED-PGLALA (bispecific antibody, part only; not given: SEED Fc chains and hu225 Fab, part only)
chain, part: DLKVEMMAGGTQITPLNDNVTIFCNIFYSQPLNITTMGITWFWKSLTFDKEVKVFEFYGDHQEAFRPGAIVSPWRLKSGDASLRLPGIQLEEAGEYRCEVVVTPYKAQGTVQLEVVASPAS
B2: ΔB7-H6_S3#16-SEED-PGLALA (bispecific antibody, part only; not given: SEED Fc chains and hu225 Fab, part only)
chain, part: B1 chain, part with T36L
B3: ΔB7-H6_S3#15-SEED-PGLALA (bispecific antibody, part only; not given: SEED Fc chains and hu225 Fab, part only)
chain, part: B1 chain, part with T36I, Y58W
B4: ΔB7-H6_S3#18-SEED-PGLALA (bispecific antibody, part only; not given: SEED Fc chains and hu225 Fab, part only)
chain, part: B1 chain, part with T36Y, Y58W
B5: ΔB7-H6_S3#5-SEED-PGLALA (bispecific antibody, part only; not given: SEED Fc chains and hu225 Fab, part only)
chain, part: B1 chain, part with T36V, Y58W
B6: ΔB7-H6_S3#1-SEED-PGLALA (bispecific antibody, part only; not given: SEED Fc chains and hu225 EGFR Fab, part only)
chain, part: B1 chain, part with Y58W
B7: ΔB7-H6_S3#3-SEED-PGLALA (bispecific antibody, part only; not given: SEED Fc chains and hu225 Fab, part only)
chain, part: B1 chain, part with T36H, Y58F, V101F
B8: ΔB7-H6_S2#13-SEED-PGLALA (bispecific antibody, part only; not given: SEED Fc chains and hu225 Fab, part only)
chain, part: B1 chain, part with T36S, Y58W
B9: ΔB7-H6_S3#31-SEED-PGLALA (bispecific antibody, part only; not given: SEED Fc chains and hu225 EGFR Fab, part only)
chain, part: B1 chain, part with T36I, Y105L
B10: ΔB7-H6_S2#10-SEED-PGLALA (bispecific antibody, part only; not given: SEED Fc chains and hu225 EGFR Fab, part only)
chain, part: B1 chain, part with T36L, Y58W, R75G, Y105L
B11: ΔB7-H6_S2#14-SEED-PGLALA (bispecific antibody, part only; not given: SEED Fc chains and hu225 Fab, part only)
chain, part: B1 chain, part with Y58F
B12: ΔB7-H6_S2#11-SEED-PGLALA (bispecific antibody, part only; not given: SEED Fc chains and hu225 Fab, part only)
chain, part: B1 chain, part with Y58W, G59Q, Y105L
B13: ΔB7-H6_S3#24-SEED-PGLALA (bispecific antibody, part only; not given: SEED Fc chains and hu225 Fab, part only)
chain, part: B1 chain, part with T36I
B14: ΔB7-H6_wt-SEED-PGLALA (bispecific antibody, part only; not given: SEED Fc chains and hu225 Fab, part only)
chain, part: B1 chain, part with T36S, Y58F, Y105L
B15: ΔB7-H6_S3#6-SEED-PGLALA (bispecific antibody, part only; not given: SEED Fc chains and hu225 Fab, part only)
chain, part: B1 chain, part with T36H, Y58W
B16: ΔB7-H6_S3#27-SEED-PGLALA (bispecific antibody, part only; not given: SEED Fc chains and hu225 EGFR Fab, part only)
chain, part: B1 chain, part with Y58W, V101I
B17: ΔB7-H6_S3#25-SEED-PGLALA (bispecific antibody, part only; not given: SEED Fc chains and hu225 Fab, part only)
chain, part: B1 chain, part with T36W
B18: ΔB7-H6_S3#29-SEED-PGLALA (bispecific antibody, part only; not given: SEED Fc chains and hu225 EGFR Fab, part only)
chain, part: B1 chain, part with T36V, Y58W, V101I
B19: ΔB7-H6_S2#4-SEED-PGLALA (bispecific antibody, part only; not given: SEED Fc chains and hu225 Fab, part only)
chain, part: B1 chain, part with T36H, G59A, F65I
B20: ΔB7-H6_S2#6-SEED-PGLALA (bispecific antibody, part only; not given: SEED Fc chains and hu225 EGFR Fab, part only)
chain, part: B1 chain, part with S29F, T36E, Y58F, V101I, Y105L
B21: ΔB7-H6_S3#2-SEED-PGLALA (bispecific antibody, part only; not given: SEED Fc chains and hu225 EGFR Fab, part only)
chain, part: B1 chain, part with T36W, Y58W
B22: ΔB7-H6_S3#32-SEED-PGLALA (bispecific antibody, part only; not given: SEED Fc chains and hu225 EGFR Fab, part only)
chain, part: B1 chain, part with T36E, Y58W, Y105V
B23: ΔB7-H6_S3#20-SEED-PGLALA (bispecific antibody, part only; not given: SEED Fc chains and hu225 Fab, part only)
chain, part: B1 chain, part with T36H, Y58W, V101F, Y105L
B24: ΔB7-H6_S2#5-SEED-PGLALA (bispecific antibody, part only; not given: SEED Fc chains and hu225 Fab, part only)
chain, part: B1 chain, part with T36S, F42L, Y58W, V101F
B25: ΔB7-H6_S3#4-SEED-PGLALA (bispecific antibody, part only; not given: SEED Fc chains and hu225 Fab, part only)
chain, part: B1 chain, part with T36I, Y58W, Y105L
B26: ΔB7-H6_S2#12-SEED-PGLALA (bispecific antibody, part only; not given: SEED Fc chains and hu225 Fab, part only)
chain, part: B1 chain, part with T36H, F42L, Y105L

Molecular target: NKp30 on human NK cells (human) (UniProt O14931)
Sequence (O14931 19-201): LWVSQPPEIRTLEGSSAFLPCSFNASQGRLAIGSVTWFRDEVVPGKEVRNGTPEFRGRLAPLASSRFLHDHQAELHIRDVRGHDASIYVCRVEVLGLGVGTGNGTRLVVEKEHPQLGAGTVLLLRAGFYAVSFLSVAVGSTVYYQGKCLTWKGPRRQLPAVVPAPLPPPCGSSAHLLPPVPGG
Experiment: cell-based or functional assay

Row | Binder | A431 EC50 with PBMC (pM) | A549 EC50 with PBMC (pM) | EC50 (pM), A431 lysis with PBMC | EC50 improvement compared to ΔB7-H6 wt | A431 EC50 with NK cells (pM) | A549 EC50 with NK cells (pM) | increase in potency with purified NK cells on A431 compared to wild-type | half-maximal killing activity, initial screening | EC50 of A431 lysis with PBMC, initial screening | EC50 of tumor cell lysis, initial screening
1 | B1 | 150 pM | 556 pM | 21 pM | 41 fold |  |  |  |  |  | 
2 | B2 | 87.3 pM | 206 pM | 29.1 pM | 30 fold |  |  |  |  |  | 
3 | B3 | 29.9 pM | 133 pM | 8.7 pM | 100 fold | 2.8 pM | 31.3 pM | 87 fold |  |  | 
4 | B4 | 51.1 pM | 132 pM | 19.8 pM | 44 fold | 4.31 pM | 42.5 pM |  |  |  | 
5 | B5 |  |  | 54.7 pM | 16 fold |  |  |  |  |  | 
6 | B6 |  |  | 61.1 pM | 14 fold |  |  |  |  |  | 
7 | B7 |  |  | 110 pM | 8 fold |  |  |  |  |  | 
8 | B8 |  |  | 171 pM | 5 fold |  |  |  |  |  | 
9 | B9 | 34.8 pM | 224 pM | 17.5 pM | 50 fold |  |  |  | 25.1 pM |  | 
10 | B10 |  |  | 122 pM | 7 fold |  |  |  |  |  | 
11 | B11 |  |  | 158 pM | 5 fold |  |  |  |  |  | 
12 | B12 |  |  | 172 pM | 5 fold |  |  |  |  |  | 
13 | B13 | 39.7 pM | 108 pM | 9.3 pM | 93 fold | 3.55 pM | 35.2 pM |  |  |  | 
14 | B14 | 1840 pM |  | 868 pM | 1 fold | 245 pM |  |  |  | 1.1 nM | 
15 | B15 |  |  | 40.8 pM | 21 fold |  |  |  |  |  | 
16 | B16 | 60.2 pM | 356 pM | 19.2 pM | 45 fold |  |  |  |  |  | 0.0276 nM
17 | B17 | 37.8 pM | 135 pM | 9.9 pM | 88 fold | 4.25 pM | 34.6 pM |  | 6 pM |  | 
18 | B18 | 33.6 pM | 172 pM | 7.6 pM | 114 fold |  |  |  |  |  | 

Same assay, conditions: not given

Row | Binder | improved potency compared to wild-type ΔB7-H6, initial screening | enhanced potency compared to the wild-type ΔB7-H6 immunoligand, initial screening
19 | B16 | 41 fold | 
20 | B17 |  | 187 fold

Molecular target: human NKp30 (human) (UniProt O14931)
Sequence (O14931 19-135 limits assumed): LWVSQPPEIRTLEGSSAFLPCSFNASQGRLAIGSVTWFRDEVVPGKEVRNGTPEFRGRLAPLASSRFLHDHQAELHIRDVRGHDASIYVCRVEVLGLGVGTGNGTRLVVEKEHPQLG
Experiment: BLI, ratio to ΔB7-H6_wt

Row | Binder | KD improvement compared to ΔB7-H6 wt | x-fold KD improvement | x-fold Koff improvement
21 | B1 | 11.9 fold | 11.9 fold | 5.2 fold
22 | B2 | 14.3 fold | 14.3 fold | 5.8 fold
23 | B3 | 33 fold | 33 fold | 16.6 fold
24 | B4 | 45.1 fold | 45.1 fold | 12.4 fold
25 | B5 | 18.2 fold | 18.2 fold | 9.3 fold
26 | B6 | 10.5 fold | 10.5 fold | 5.7 fold
27 | B7 | 3.9 fold | 3.9 fold | 1.5 fold
28 | B8 | 2 fold | 2 fold | 2 fold
29 | B9 | 9.4 fold | 9.4 fold | 6.3 fold
30 | B10 | 2.2 fold | 2.2 fold | 1.5 fold
31 | B11 | 1.9 fold | 1.9 fold | 1.4 fold
32 | B12 | 1.7 fold | 1.7 fold | 1.5 fold
33 | B13 | 27.4 fold | 27.5 fold | 16.1 fold
34 | B14 | 1 fold |  | 
35 | B15 | 12.4 fold | 12.4 fold | 6.9 fold
36 | B16 | 4.9 fold | 4.9 fold | 3 fold
37 | B17 | 6.3 fold | 6.3 fold | 3.5 fold
38 | B18 | 16.5 fold | 16.5 fold | 9.6 fold

Molecular target: human NKp30 (human) (UniProt O14931)
Experiment: BLI, immunoligand on anti-hFc tip

Row | Binder | Kd | koff | kon
39 | B1 | 34.5 nM | 0.0322 s⁻¹ | 933000 M⁻¹ s⁻¹
40 | B19 | 147 nM | 0.122 s⁻¹ | 830000 M⁻¹ s⁻¹
41 | B20 | 285 nM | 0.376 s⁻¹ | 1.32e+06 M⁻¹ s⁻¹
42 | B2 | 28.7 nM | 0.0289 s⁻¹ | 1.01e+06 M⁻¹ s⁻¹
43 | B3 | 12.4 nM | 0.0101 s⁻¹ | 817000 M⁻¹ s⁻¹
44 | B21 | 11.7 nM | 0.0122 s⁻¹ | 1.04e+06 M⁻¹ s⁻¹
45 | B4 | 9.06 nM | 0.0136 s⁻¹ | 1.5e+06 M⁻¹ s⁻¹
46 | B5 | 22.5 nM | 0.018 s⁻¹ | 799000 M⁻¹ s⁻¹
47 | B22 | 188 nM | 0.0766 s⁻¹ | 409000 M⁻¹ s⁻¹
48 | B6 | 39.1 nM | 0.0295 s⁻¹ | 754000 M⁻¹ s⁻¹
49 | B23 | 61.6 nM | 0.0642 s⁻¹ | 1.04e+06 M⁻¹ s⁻¹
50 | B7 | 104 nM | 0.109 s⁻¹ | 1.05e+06 M⁻¹ s⁻¹
51 | B8 | 205 nM | 0.0842 s⁻¹ | 410000 M⁻¹ s⁻¹
52 | B9 | 43.6 nM | 0.0269 s⁻¹ | 616000 M⁻¹ s⁻¹
53 | B10 | 187 nM | 0.111 s⁻¹ | 597000 M⁻¹ s⁻¹
54 | B24 | 253 nM | 0.148 s⁻¹ | 585000 M⁻¹ s⁻¹
55 | B11 | 217 nM | 0.124 s⁻¹ | 570000 M⁻¹ s⁻¹
56 | B12 | 234 nM | 0.115 s⁻¹ | 491000 M⁻¹ s⁻¹
57 | B25 | 23.9 nM | 0.0149 s⁻¹ | 621000 M⁻¹ s⁻¹
58 | B26 | 291 nM | 0.162 s⁻¹ | 556000 M⁻¹ s⁻¹
59 | B13 | 14.9 nM | 0.0104 s⁻¹ | 702000 M⁻¹ s⁻¹
60 | B14 | 409 nM | 0.168 s⁻¹ | 412000 M⁻¹ s⁻¹
61 | B15 | 33.1 nM | 0.0244 s⁻¹ | 737000 M⁻¹ s⁻¹
62 | B16 | 83 nM | 0.0556 s⁻¹ | 669000 M⁻¹ s⁻¹
63 | B17 | 65.2 nM | 0.0486 s⁻¹ | 745000 M⁻¹ s⁻¹
64 | B18 | 24.8 nM | 0.0175 s⁻¹ | 705000 M⁻¹ s⁻¹

Source: US20230287082A1 (published 2023)
